Like-named read-outs stand apart in the source and are kept apart here. *1 amine or outer side, *2 acyl side, *3 side chain or, on linkers, in order; H or OH if unused. Where no end group is shown, it is not given here. Side-chain parts run from the residue outwards. [ ]: non-standard residue; d: D form. The star is where a group is joined. αMePhe(2-F) = C[C@](N)(Cc1ccccc1F)C(=O)O; γGlu = O=C(O)[C@H](CCC(=O)[*:2])N[*:1]; C14 diacid = O=C(O)CCCCCCCCCCCCC(=O)*; αMeY = C[C@](N)(Cc1ccc(O)cc1)C(=O)O; αMeL = CC(C)C[C@](C)(N)C(=O)O; Orn = NCCC[C@H](N)C(=O)O; AEEA = NCCOCCOCC(=O)O; Aib = CC(C)(N)C(=O)O
Columns and labels:
[1] = target: T1, human GIP receptor (human) (UniProt P48546); test: cell-based or functional assay
T1 sequence (looked up): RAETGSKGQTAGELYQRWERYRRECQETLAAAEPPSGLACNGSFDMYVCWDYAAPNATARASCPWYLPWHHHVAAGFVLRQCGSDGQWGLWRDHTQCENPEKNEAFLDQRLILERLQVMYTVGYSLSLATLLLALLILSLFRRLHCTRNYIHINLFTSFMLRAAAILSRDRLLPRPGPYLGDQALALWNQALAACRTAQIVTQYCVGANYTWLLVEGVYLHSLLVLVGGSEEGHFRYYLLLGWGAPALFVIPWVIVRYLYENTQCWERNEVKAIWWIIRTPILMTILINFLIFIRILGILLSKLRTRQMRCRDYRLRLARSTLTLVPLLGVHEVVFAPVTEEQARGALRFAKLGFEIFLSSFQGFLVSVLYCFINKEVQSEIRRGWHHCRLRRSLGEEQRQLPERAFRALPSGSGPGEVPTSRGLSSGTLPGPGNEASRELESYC

hGCGR = target: T2, hGCGR (Homo sapiens, UniProt P47871); test: Functional cAMP formation (HTRF) in HEK-293 clonal cells expressing hGCGR, 0.1% bovine casein, without or with 1.0% human serum albumin; type: cell-based; conditions: geometric mean, read-out: hGCGR EC50, nM (SEM, n)
T2 construct: expressed in transfected cells
How it was run: (§1)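 Cells were stimulated with peptide for 30 min at 37° C, then lysed in buffer carrying cAMP-d2 and anti-cAMP Eu3+-cryptate for a competitive HTRF read after at least 60 min at room temperature. The 665/620 nm ratio was converted to nM cAMP against a standard curve.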

hGIPR = target: T3, hGIPR (Homo sapiens, UniProt P48546); test: Functional cAMP formation (HTRF) in HEK-293 clonal cells expressing hGIPR, 0.1% bovine casein, without or with 1.0% human serum albumin; type: cell-based; conditions: for EC50: geometric mean, read-out: hGIPR EC50, nM (SEM, n); for Emax: read-out: hGIPR Emax, % ± SEM
T3 construct: expressed in transfected cells
T3 sequence (P48546 22-466): T1 sequence (looked up)
How it was run: as §1

hGLP-1R = hGLP-1R (Homo sapiens, UniProt P43220); test: Functional cAMP formation (HTRF) in HEK-293 clonal cells expressing hGLP-1R, 0.1% bovine casein, without or with 1.0% human serum albumin; type: cell-based; design: expressed in transfected cells; conditions: 0.1% bovine casein and 1.0% human serum albumin, 37° C.; geometric mean; read-out: hGLP-1R EC50, nM (SEM, n)
How it was run: as §1

human GIP receptor [2] = target: T4, human GIP receptor (human, UniProt P48546 22-466); test: cell-based or functional assay
T4 sequence (looked up): T1 sequence (looked up)

human GLP-1 receptor [3] = target: human GLP-1 receptor (human, UniProt P43220 24-463); test: cell-based or functional assay
human GLP-1 receptor [4] = target: human GLP-1 receptor (human, UniProt P43220 24-463); test: cell-based or functional assay; remark: listed apart in the source
human GIP receptor [5] = target: T5, human GIP receptor (human, UniProt P48546 22-466); test: cell-based or functional assay; remark: listed apart in the source
T5 sequence (looked up): T1 sequence (looked up)

[6] = 0.1% bovine casein and 1.0% human serum albumin, 37° C.
[7] = cAMP, incubated at 37° C., 0.1% bovine casein (no human serum albumin)

T2 sequence (P47871 26-477): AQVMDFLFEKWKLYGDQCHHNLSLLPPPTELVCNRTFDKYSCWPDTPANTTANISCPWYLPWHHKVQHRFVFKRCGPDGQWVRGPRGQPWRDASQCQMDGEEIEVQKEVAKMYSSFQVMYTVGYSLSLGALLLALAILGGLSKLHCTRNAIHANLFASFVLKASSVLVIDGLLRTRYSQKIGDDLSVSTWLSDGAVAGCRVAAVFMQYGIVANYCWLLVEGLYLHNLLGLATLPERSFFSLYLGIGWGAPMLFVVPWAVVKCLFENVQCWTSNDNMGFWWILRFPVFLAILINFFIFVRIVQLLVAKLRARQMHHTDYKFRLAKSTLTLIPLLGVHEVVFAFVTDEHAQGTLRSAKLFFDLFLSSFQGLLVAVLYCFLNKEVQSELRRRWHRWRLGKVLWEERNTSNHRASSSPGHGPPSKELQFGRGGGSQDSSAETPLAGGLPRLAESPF
Sequence of hGLP-1R (P43220 24-463): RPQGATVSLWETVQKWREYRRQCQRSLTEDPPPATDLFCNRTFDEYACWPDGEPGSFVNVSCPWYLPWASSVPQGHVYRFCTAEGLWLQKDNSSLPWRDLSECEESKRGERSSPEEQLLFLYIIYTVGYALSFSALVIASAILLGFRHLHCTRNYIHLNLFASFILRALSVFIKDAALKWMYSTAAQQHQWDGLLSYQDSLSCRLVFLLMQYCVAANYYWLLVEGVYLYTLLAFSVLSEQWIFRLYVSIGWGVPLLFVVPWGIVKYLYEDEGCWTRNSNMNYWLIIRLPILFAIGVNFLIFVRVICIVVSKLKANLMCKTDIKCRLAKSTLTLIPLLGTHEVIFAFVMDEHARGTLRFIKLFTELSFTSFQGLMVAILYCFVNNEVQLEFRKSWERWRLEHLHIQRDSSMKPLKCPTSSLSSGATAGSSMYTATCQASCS

“hGIP(1-42)NH2 (from UniProt P09681 52-93) (ligand)” showed an Emax, cAMP [1] of 100%, a cAMP EC50 (1.0% HSA) [1] of 0.597 nM and a cAMP Emax (1.0% HSA) [1] of 98%.

In the case of `CC[C@H](C)[C@H](NC(=O)[C@H](CC(C)C)NC(=O)[C@](C)(Cc1ccc(O)cc1)NC(=O)[C@@H](CCC(=O)O)NC(=O)[C@@H](NC(=O)[C@H](Cc1ccccc1)NC(=O)[C@H](CCC(=O)O)NC(=O)C(C)(C)NC(=O)[C@H](CCC(N)=O)NC(=O)[C@H](C)NC(=O)[C@H](CCCCNC(=O)CC[C@H](NC(=O)COCCOCCNC(=O)CCCCCCCCCCCCC(=O)O)C(=O)O)NC(=O)[C@H](CCCN)NC(=O)[C@H](CC(=O)O)NC(=O)[C@H](CC(C)C)NC(=O)[C@](C)(CC(C)C)NC(=O)[C@@H](NC(=O)[C@H](CO)NC(=O)[C@H](Cc1ccncc1)NC(=O)[C@H](CC(=O)O)NC(=O)[C@H](CO)NC(=O)[C@@H](NC(=O)[C@](C)(Cc1ccccc1F)NC(=O)[C@@H](NC(=O)CNC(=O)[C@H](CCC(=O)O)NC(=O)C(C)(C)NC(=O)[C@@H](N)Cc1ccc(O)cc1)[C@@H](C)O)[C@@H](C)O)[C@@H](C)CC)[C@@H](C)CC)C(=O)N[C@@H](CCC(=O)O)C(=O)NCC(=O)NCC(=O)N[C@@H](CCCCNC(=O)CC[C@H](NC(=O)COCCOCCNC(=O)CCCCCCCCCCCCC(=O)O)C(=O)O)C(=O)N[C@@H](CO)C(=O)N[C@@H](CO)C(=O)NCC(=O)N[C@@H](C)C(=O)N1CCC[C@H]1C(=O)N1CCC[C@H]1C(=O)N1CCC[C@H]1C(=O)N[C@@H](CO)C(N)=O` [Example 42], the EC50 (hGCGR; [6]) is reported as over 9950 nM, the EC50 (hGCGR; [7]) is reported as over 9950 nM and the EC50 (hGIPR; [6]) is reported as 1 nM. For the same molecule, the Emax (hGIPR; HEK293, 0.1% bovine casein and 1.0% human serum albumin, 37° C., percent of maximal response to GIP(1-42)NH2) was 91.1 ± 0.67%, the Emax (hGIPR; HEK293, percent of maximal response to GIP(1-42)NH2, 37° C., 0.1% bovine casein, arithmetic mean) was 97.8 ± 7.18% and the EC50 (hGIPR; [7]) was 0.0103 nM. It also gave an EC50 (hGLP-1R) of 26.7 nM.

B1: Example 304 (peptide)
peptide: Y[Aib]EGT[αMePhe(2-F)]TSDV[Aib]I[αMeL]LD[Orn]IAQ[Aib]EFIK([AEEA-AEEA-γGlu-C14 diacid])[αMeY]LIK([AEEA-AEEA-γGlu-C14 diacid])GGPSSGAPPPS-NH2
In the case of B1, the “cAMP EC50 (1.0% HSA)” value (human GIP receptor [2]) is reported as 4.83 nM and the “cAMP EC50 (1.0% HSA)” value (human GLP-1 receptor [3]) is reported as 64.2 nM.

B2: Example 91 (peptide)
peptide: Y[Aib]EGT[αMePhe(2-F)]TSDV[Aib]I[αMeL]LD[Orn]K([AEEA-AEEA-γGlu-C14 diacid])AQ[Aib]EFI[dE][αMeY]LIEGGK([AEEA-AEEA-γGlu-C14 diacid])SSGAPPPS-NH2
modifications: N-terminus assumed
SMILES: CC[C@H](C)[C@H](NC(=O)[C@H](CC(C)C)NC(=O)[C@](C)(Cc1ccc(O)cc1)NC(=O)[C@@H](CCC(=O)O)NC(=O)[C@@H](NC(=O)[C@H](Cc1ccccc1)NC(=O)[C@H](CCC(=O)O)NC(=O)C(C)(C)NC(=O)[C@H](CCC(N)=O)NC(=O)[C@H](C)NC(=O)[C@H](CCCCNC(=O)COCCOCCNC(=O)COCCOCCNC(=O)CC[C@H](NC(=O)CCCCCCCCCCCCC(=O)O)C(=O)O)NC(=O)[C@H](CCCN)NC(=O)[C@H](CC(=O)O)NC(=O)[C@H](CC(C)C)NC(=O)[C@](C)(CC(C)C)NC(=O)[C@@H](NC(=O)C(C)(C)NC(=O)[C@@H](NC(=O)[C@H](CC(=O)O)NC(=O)[C@H](CO)NC(=O)[C@@H](NC(=O)[C@](C)(Cc1ccccc1F)NC(=O)[C@@H](NC(=O)CNC(=O)[C@H](CCC(=O)O)NC(=O)C(C)(C)NC(=O)[C@@H](N)Cc1ccc(O)cc1)[C@@H](C)O)[C@@H](C)O)C(C)C)[C@@H](C)CC)[C@@H](C)CC)C(=O)N[C@@H](CCC(=O)O)C(=O)NCC(=O)NCC(=O)N[C@@H](CCCCNC(=O)COCCOCCNC(=O)COCCOCCNC(=O)CC[C@H](NC(=O)CCCCCCCCCCCCC(=O)O)C(=O)O)C(=O)N[C@@H](CO)C(=O)N[C@@H](CO)C(=O)NCC(=O)N[C@@H](C)C(=O)N1CCC[C@H]1C(=O)N1CCC[C@H]1C(=O)N1CCC[C@H]1C(=O)N[C@@H](CO)C(N)=O
For B2, the “EC50, cAMP” value (human GLP-1 receptor [4]) was 0.153 nM, the “Emax, cAMP” value (human GLP-1 receptor [4]) was 94% and the “EC50, cAMP” value (human GIP receptor [5]) was 0.0739 nM. The “Emax, cAMP” value (human GIP receptor [5]) was 92.8%.

From patent US20230265151A1, “GIP/GLP1 CO-AGONIST COMPOUNDS” (priority 2020, published 2023)
